Assay results from patent US20210388087A1 (Chugai, published 2021).
Positions count from the first letter of the chain named. Names may count otherwise.

B1: H183/L072 VH A56T (antibody, name in Kabat numbering, V domains shown)
VH: QVQLVESGGGLVQPGRSLRLSCAASGFTFSNAWMHWVRQAPGKGLEWVAQIKDKGNAYTAYYAPSVKGRFTISRDDSKNSIYLQMNSLKTEDTAVYYCHYVHYASASTVLPAFGVDAWGQGTTVTVSS
VL: DIVMTQSPLSLPVTPGEPASISCQASQELVHMNRNTYLHWYQQKPGQAPRLLIYKVSNRFPGVPDRFSGSGSGTDFTLKISRVEAEDVGVYYCAQGTSVPFTFGQGTKLEIK
B2: H183/L072 VH A57R (antibody, name in Kabat numbering, V domains shown)
VH: B1 VH with T59A, A60R
VL: B1 VL
B3: H183/L072 VH A60K (antibody, name in Kabat numbering, V domains shown)
VH: B1 VH with T59A, A63K
VL: B1 VL
B4: H183/L072 VH A56V (antibody, name in Kabat numbering, V domains shown)
VH: B1 VH with T59V
VL: B1 VL
B5: H183/L072 VH A60D (antibody, name in Kabat numbering, V domains shown)
VH: B1 VH with T59A, A63D
VL: B1 VL
B6: H183/L072 VH A57M (antibody, name in Kabat numbering, V domains shown)
VH: B1 VH with T59A, A60M
VL: B1 VL
B7: H183/L072 VH A57Y (antibody, name in Kabat numbering, V domains shown)
VH: B1 VH with T59A, A60Y
VL: B1 VL
B8: H183/L072 VH A60G (antibody, name in Kabat numbering, V domains shown)
VH: B1 VH with T59A, A63G
VL: B1 VL
B9: H183/L072 VH A60N (antibody, name in Kabat numbering, V domains shown)
VH: B1 VH with T59A, A63N
VL: B1 VL
B10: H183/L072 VH A60Q (antibody, name in Kabat numbering, V domains shown)
VH: B1 VH with T59A, A63Q
VL: B1 VL
B11: H183/L072 VH A60I (antibody, name in Kabat numbering, V domains shown)
VH: B1 VH with T59A, A63I
VL: B1 VL
B12: H183/L072 VH A56Y (antibody, name in Kabat numbering, V domains shown)
VH: B1 VH with T59Y
VL: B1 VL
B13: H183/L072 VH A60F (antibody, name in Kabat numbering, V domains shown)
VH: B1 VH with T59A, A63F
VL: B1 VL
B14: H183/L072 VH A57E (antibody, name in Kabat numbering, V domains shown)
VH: B1 VH with T59A, A60E
VL: B1 VL
B15: H183/L072 VH A57H (antibody, name in Kabat numbering, V domains shown)
VH: B1 VH with T59A, A60H
VL: B1 VL
B16: H183/L072 VH A57I (antibody, name in Kabat numbering, V domains shown)
VH: B1 VH with T59A, A60I
VL: B1 VL
B17: H183/L072 VH A60H (antibody, name in Kabat numbering, V domains shown)
VH: B1 VH with T59A, A63H
VL: B1 VL
B18: H183/L072 VH A57G (antibody, name in Kabat numbering, V domains shown)
VH: B1 VH with T59A, A60G
VL: B1 VL
B19: H183/L072 VH A60E (antibody, name in Kabat numbering, V domains shown)
VH: B1 VH with T59A, A63E
VL: B1 VL
B20: H183/L072 VH A57Q (antibody, name in Kabat numbering, V domains shown)
VH: B1 VH with T59A, A60Q
VL: B1 VL
B21: H183/L072 VH A56W (antibody, name in Kabat numbering, V domains shown)
VH: B1 VH with T59W
VL: B1 VL
B22: H183/L072 VH A57K (antibody, name in Kabat numbering, V domains shown)
VH: B1 VH with T59A, A60K
VL: B1 VL
B23: H183/L072 VH A60R (antibody, name in Kabat numbering, V domains shown)
VH: B1 VH with T59A, A63R
VL: B1 VL
B24: H183/L072 VH A57F (antibody, name in Kabat numbering, V domains shown)
VH: B1 VH with T59A, A60F
VL: B1 VL
B25: H183/L072 VH A57T (antibody, name in Kabat numbering, V domains shown)
VH: B1 VH with T59A, A60T
VL: B1 VL
B26: H183/L072 VH A57V (antibody, name in Kabat numbering, V domains shown)
VH: B1 VH with T59A, A60V
VL: B1 VL
B27: H183/L072 VH A57N (antibody, name in Kabat numbering, V domains shown)
VH: B1 VH with T59A, A60N
VL: B1 VL
B28: H183/L072 VH A57S (antibody, name in Kabat numbering, V domains shown)
VH: B1 VH with T59A, A60S
VL: B1 VL
B29: H183/L072 VH A60L (antibody, name in Kabat numbering, V domains shown)
VH: B1 VH with T59A, A63L
VL: B1 VL
B30: H183/L072 VH A60P (antibody, name in Kabat numbering, V domains shown)
VH: B1 VH with T59A, A63P
VL: B1 VL
B31: H183/L072 VH A57D (antibody, name in Kabat numbering, V domains shown)
VH: B1 VH with T59A, A60D
VL: B1 VL
B32: H183/L072 VH A57P (antibody, name in Kabat numbering, V domains shown)
VH: B1 VH with T59A, A60P
VL: B1 VL
B33: H183/L072 VH A60M (antibody, name in Kabat numbering, V domains shown)
VH: B1 VH with T59A, A63M
VL: B1 VL

Target: T1, Human CD137 ECD (human)
T1 construct: also called 4-1BB
Assay: single mutant vs template dBBDu183H

T1 sequence (chain, as listed by the source limits assumed): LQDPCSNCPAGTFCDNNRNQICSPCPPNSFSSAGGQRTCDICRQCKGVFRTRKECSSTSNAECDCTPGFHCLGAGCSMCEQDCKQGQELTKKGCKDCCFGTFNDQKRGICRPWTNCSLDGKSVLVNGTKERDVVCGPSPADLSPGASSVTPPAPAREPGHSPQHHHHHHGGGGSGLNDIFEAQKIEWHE

Going from B1 to B2, the “fold change of affinity” value rises from 0.4 fold to 0.5 fold.

Going from B3 to B4, the “fold change of affinity” value falls from 1.1 fold to 0.2 fold.

Going from B5 to B6, the “fold change of affinity” value rises from 0.6 fold to 0.7 fold.

First: B7
Second: B8
The “fold change of affinity” value of the first is lower: 0 fold for the first, 0.8 fold for the second.

Compared with B9, B10 is lower in “fold change of affinity” value: 1.3 fold for the first, 1.1 fold for the second.

Compared with B11, B12 is lower in “fold change of affinity” value: 0.7 fold for the first, 0.3 fold for the second.

First: B13
Second: B14
The “fold change of affinity” value of the first is higher: 1.2 fold for the first, 0.9 fold for the second.

First: B15
Second: B16
The “fold change of affinity” value of the first is higher: 0.5 fold for the first, 0.1 fold for the second.

First: B17
Second: B18
The “fold change of affinity” value of the first is higher: 1.3 fold for the first, 0.9 fold for the second.

First: B19
Second: B20
The “fold change of affinity” value of the first is lower: 0.8 fold for the first, 0.9 fold for the second.

First: B21
Second: B22
The “fold change of affinity” value of the first is lower: 0.3 fold for the first, 0.9 fold for the second.

First: B23
Second: B24
The “fold change of affinity” value of the first is higher: 1.2 fold for the first, 0.1 fold for the second.

Going from B25 to B26, the “fold change of affinity” value falls from 0.6 fold to 0.5 fold.

First: B27
Second: B28
The “fold change of affinity” value of the first is lower: 0.3 fold for the first, 0.8 fold for the second.

First: B29
Second: B30
The “fold change of affinity” value of the first is higher: 1.1 fold for the first, 0.1 fold for the second.

Compared with B31, B32 is lower in “fold change of affinity” value: 1.2 fold for the first, 1 fold for the second.

With B33 the “fold change of affinity” value was 1 fold.
